Experimental data as given in PMC7144912 (Nucleic Acids Research, 2020).
Read-outs that look alike come from different tables or passages of the source.

Key:
[1] = target: T1, DNMT3B catalytic domain (3B-CD);DNMT3L catalytic-like domain (3L-CD) (Homo sapiens;Homo sapiens, UniProt Q9UBC3;Q9UJW3 571-853;178-379, |); experiment: X-ray crystallography
[2] = target: the molecule itself; experiment: crystal structure
[3] = target: T1, DNMT3B catalytic domain (3B-CD);DNMT3L …; experiment: X-ray crystallography; remark: listed apart in the source

T1 sequence (Q9UJW3 178-379, one chain of several): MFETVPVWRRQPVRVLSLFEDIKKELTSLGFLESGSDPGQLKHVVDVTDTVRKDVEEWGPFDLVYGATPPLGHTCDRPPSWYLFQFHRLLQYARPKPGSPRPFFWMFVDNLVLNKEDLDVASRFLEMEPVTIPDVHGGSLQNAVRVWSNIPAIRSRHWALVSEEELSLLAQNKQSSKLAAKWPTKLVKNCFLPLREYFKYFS

B1: CpGpG crystallization duplex (dsDNA)
DNA 1: GAATTCGGAAAAATTTTTCCGAATT
DNA 2: GAATTCGGAAAAATTTTTCCGAATT
binding result [1]: binds

B2: catalytic domain of human DNMT3B (3B-CD, residues 571–853) (domain or fragment, UniProt Q9UBC3 571-853, looked up)
chain: RRRPIRVLSLFDGIATGYLVLKELGIKVGKYVASEVCEESIAVGTVKHEGNIKYVNDVRNITKKNIEEWGPFDLVIGGSPCNDLSNVNPARKGLYEGTGRLFFEFYHLLNYSRPKEGDDRPFFWMFENVVAMKVGDKRDISRFLECNPVMIDAIKVSAAHRARYFWGNLPGMNRPVIASKNDKLELQDCLEYNRIAKLKKVQTITTKSNSIKQGKNQLFPVVMNGKEDVLWCTELERIFGFPVHYTDVSNMGRGARQKLLGRSWSVPVIRHLFAPLKDYFACE
binding result [2]: binds

B3: CpGpT crystallization duplex (dsDNA)
DNA 1: GCATGCGTTCTAATTAGAACGCATG
DNA 2: GCATGCGTTCTAATTAGAACGCATG
binding result [3]: binds
